Results: patent US20180208666A1 (VENTANA MEDICAL SYSTEMS, published 2018)
Ends that are not written are not given here.

Assays:
human OX40 = target: T1, human OX40 (human, UniProt P43489 29-277); experiment: IHC on FFPE OX-40 transfected cells and FFPE tissues, ultraView DAB detection
T1 construct: no signal peptide limits are stated
T1 sequence: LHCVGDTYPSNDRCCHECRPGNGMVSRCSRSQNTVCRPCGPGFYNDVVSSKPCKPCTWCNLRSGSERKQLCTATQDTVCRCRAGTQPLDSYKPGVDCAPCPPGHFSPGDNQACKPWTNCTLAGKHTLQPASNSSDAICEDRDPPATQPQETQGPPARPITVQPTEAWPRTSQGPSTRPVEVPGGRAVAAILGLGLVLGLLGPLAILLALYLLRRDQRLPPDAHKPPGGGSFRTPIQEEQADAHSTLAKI
Experimental: IHC was performed using StdCC1 cell conditioning with ultraView Universal DAB Detection Kit (Ventana Medical Systems, Inc., Tucson, Ariz.). Primary antibody was incubated for 16 min at 37° C. on a BenchMark ULTRA automated slide stainer (Ventana Medical Systems, Inc., Tucson, Ariz.). Results are shown at Fig. (A) Mock transfected cells (negative control cells); (B) OX-40 transfected cells (positive control cells); (C) Reactive lymph node; and (D) Prostate adenocarcinoma.

[1] = target: T2, peptide fragment of amino acid residues 266-277 of OX40 (human, also: conjugated to KLH for immunisation); experiment: ELISA screen of antibody-expressing cells on the OX40 antigen (peptide 266-277)
T2 construct: It was conjugated to KLH for immunisation; also called OX40 antigen; 12-amino acid fragment
T2 peptide: EQADAHSTLAKI
Description: Anti-OX40 rabbit monoclonal antibodies were generated as schematically depicted in FIG. 1. Briefly, the peptide fragment of amino acid residues 266-277 of was synthesized. The 12-amino acid fragment intended for immunization was conjugated to keyhole limpet hemocyanin (KLH), an extensively used carrier protein for stimulating a substantial immune response via antibody production. New Zealand White rabbits were immunized with KLH conjugated OX40 antigen emulsified with complete Freund's adjuvant followed by a series of OX40 antigen booster emulsified with incomplete Freund's adjuvant. The antibody-expressing cells were screened by enzyme-linked immunoabsorbant assay (ELISA) using the OX40 antigen. All ELISA positive clones were further screened by immunohistochemistry (IHC), and the clone producing the antibody with the highest specificity was selected. For recombinant production of anti-OX40 antibodies, cDNA coding for the heavy chain and light chain sequences of the antibodies were cloned, expressed by co-transfection, and screened for binding to OX40 by IHC. Anti-OX40 monoclonal antibody SP197 was produced using these methods and subsequently purified by Protein A affinity chromatography. The heavy and light chain variable region sequences of the SP197 antibody are as follows.

binding result (human OX40): binds
binding result [1]: binds
B1: Anti-OX40 monoclonal antibody SP197 (antibody, V domains shown)
VH: QSLEESGGRLVAPGGSLTLTCTVSGIDLSSDNIQWVRQAPGKGLEWIGAVDYNNKPFYANWAKGRFTISKTSSTTVDLKMTSLTTEDTATYFCAKNTFSPWGPGTLVTVSS
VL: DPAMTQTPSSTSAAVGGTVTINCQSSQSVYNANHLSWFQQKPGQPPKRLIYYISTPDSGVPPRFSGSGSGTQFTLTISGVQCDDAATYYCAALNSDEVFTFGGGTEVVVK
notes: also called rabbit anti-human OX-40 monoclonal antibody (SP197); anti-OX40 antibody SP197
